Measurements published in patent publication US20140120095A1 (Boehringer Ingelheim, published 2014).
Substitutions are numbered along the chain they refer to.

B1: DLLBII101G08 (VHH)
VHH: EVQLVESGGGLVQAGGSLRLSCAASGRTFSSYAMAWFRQAPGKEREFVAAIRWSGGTAYYADSVQGRFTISRDNAKNTVYLQMNSLKPEDTAVYYCANRAADTRLGPYEYDYWGQGTQVTVSS
notes: also called 101G8; DLLBII101G8
B2: DLLBII101G08 (VHH, not shown: small tags and cut ends)
VHH: B1 VHH
notes: parent VHH; also called 101G08 (wt); 101G8
B3: DLLBII129B05 (VHH, not shown: small tags and cut ends)
VHH: B1 VHH with F37Y, F47Y, A101P, G106A, Y112H
B4: DLLBII129D08 (VHH, not shown: small tags and cut ends)
VHH: B1 VHH with F37Y, F47Y, A101P, G106E, E109L
B5: DLLBII129E11 (VHH, not shown: small tags and cut ends)
VHH: B1 VHH with F37Y, F47Y, A101P, G106R, E109L

Columns and labels:
[1] = molecular target: T1, recombinant human DLL4 (human, UniProt Q9NR61 25-522); assay: Biacore off-rate, periplasmic extract
T1 construct: also called rhDLL4; hDLL4

[2] = molecular target: T2, recombinant human DLL4 (C-terminally His-tagged extracellular domain, R&D Systems) (human, UniProt Q9NR61 25-522, biotinylated in the competition ELISA); assay: SPR (Biacore), rhDLL4
T2 construct: also called rhDLL4; hDLL4
Description: Kinetic analysis to determine the affinity of the DII4-VHH interaction is performed by Surface Plasmon Resonance (SPR) on a Biacore T100 instrument. […] Purified VHHs or Fab fragment are injected for 2 minutes at different concentrations (between 10 and 300 nM) and allowed to dissociate for 20 min at a flow rate of 45 μl/min. Between sample injections, the surfaces are regenerated with 10 mM glycine pH1.5 and 100 mM HCl. HBS-N (Hepes buffer pH7.4) is used as running buffer. If possible, data are evaluated by fitting a 1:1 interaction model (Langmuir binding) onto the binding curves. The affinity constant KD is calculated from resulting association and dissociation rate constants (kₐ) and […].

[3] = molecular target: T3, recombinant mouse DLL4 (C-terminally His-tagged extracellular domain, R&D Systems) (mouse, UniProt Q9JI71 27-532); assay: SPR (Biacore), rmDLL4
T3 construct: extracellular domain; also called rmDLL4; mDLL4
T3 sequence (Q9JI71 27-532): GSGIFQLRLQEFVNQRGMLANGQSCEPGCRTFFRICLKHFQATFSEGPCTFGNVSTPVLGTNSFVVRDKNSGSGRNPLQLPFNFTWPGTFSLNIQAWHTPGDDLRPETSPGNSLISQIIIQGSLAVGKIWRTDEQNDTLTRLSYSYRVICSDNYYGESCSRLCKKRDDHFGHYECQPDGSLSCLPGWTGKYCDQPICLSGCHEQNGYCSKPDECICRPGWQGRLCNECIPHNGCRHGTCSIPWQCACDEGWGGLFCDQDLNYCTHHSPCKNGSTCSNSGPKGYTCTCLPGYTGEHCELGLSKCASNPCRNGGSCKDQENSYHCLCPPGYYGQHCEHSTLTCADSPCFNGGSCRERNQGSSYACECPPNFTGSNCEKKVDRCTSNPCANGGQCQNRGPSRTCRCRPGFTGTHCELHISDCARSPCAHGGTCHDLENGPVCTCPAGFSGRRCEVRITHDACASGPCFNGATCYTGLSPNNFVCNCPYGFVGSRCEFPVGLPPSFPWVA

[4] = molecular target: T4, human DLL4 expressed on cells (CHO-hDLL4; HEK293-hDLL4) (human, UniProt Q9NR61 27-685); assay: cell-based or functional assay
[5] = molecular target: T5, cynomolgus DLL4 expressed on CHO cells (cynomolgus, UniProt Q9NR61 27-685 (human entry)); assay: FACS on CHO-cDLL4 cells
T5 construct: also called cDLL4; CHO-cDLL4
T5 chain: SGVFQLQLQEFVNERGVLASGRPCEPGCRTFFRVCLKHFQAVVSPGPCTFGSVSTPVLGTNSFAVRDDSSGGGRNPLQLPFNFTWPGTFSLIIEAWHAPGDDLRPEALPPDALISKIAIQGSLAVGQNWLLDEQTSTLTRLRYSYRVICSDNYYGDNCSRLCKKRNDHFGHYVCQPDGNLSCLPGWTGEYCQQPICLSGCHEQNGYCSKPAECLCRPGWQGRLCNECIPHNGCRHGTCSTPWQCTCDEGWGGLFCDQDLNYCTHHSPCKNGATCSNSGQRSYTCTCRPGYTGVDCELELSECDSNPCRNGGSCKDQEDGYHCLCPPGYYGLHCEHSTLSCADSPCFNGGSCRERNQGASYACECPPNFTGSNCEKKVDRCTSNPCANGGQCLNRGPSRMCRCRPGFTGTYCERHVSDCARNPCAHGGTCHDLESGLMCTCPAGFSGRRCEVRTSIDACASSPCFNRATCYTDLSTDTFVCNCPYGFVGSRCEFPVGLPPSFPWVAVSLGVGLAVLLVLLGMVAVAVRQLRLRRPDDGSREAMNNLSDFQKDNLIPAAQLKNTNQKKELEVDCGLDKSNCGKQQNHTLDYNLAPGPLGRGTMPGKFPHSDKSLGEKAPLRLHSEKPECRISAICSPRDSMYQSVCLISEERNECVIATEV

[6] = molecular target: T4, human DLL4 expressed on cells …; assay: FACS on CHO-hDLL4 cells
[7] = molecular target: T2, recombinant human DLL4 (C-terminally …); assay: SPR (Biacore); summary table
[8] = molecular target: T3, recombinant mouse DLL4 (C-terminally …); assay: SPR (Biacore); summary table
[9] = molecular target: T4, human DLL4 expressed on cells …; assay: competition FMAT CHO-hDLL4; summary table
[10] = molecular target: T6, mouse DLL4 expressed on CHO cells (mouse, UniProt Q9JI71 27-686); assay: competition FMAT CHO-mDLL4; summary table
T6 construct: whole, on cells; also called mDLL4; CHO-mDLL4
T6 sequence (Q9JI71 27-686): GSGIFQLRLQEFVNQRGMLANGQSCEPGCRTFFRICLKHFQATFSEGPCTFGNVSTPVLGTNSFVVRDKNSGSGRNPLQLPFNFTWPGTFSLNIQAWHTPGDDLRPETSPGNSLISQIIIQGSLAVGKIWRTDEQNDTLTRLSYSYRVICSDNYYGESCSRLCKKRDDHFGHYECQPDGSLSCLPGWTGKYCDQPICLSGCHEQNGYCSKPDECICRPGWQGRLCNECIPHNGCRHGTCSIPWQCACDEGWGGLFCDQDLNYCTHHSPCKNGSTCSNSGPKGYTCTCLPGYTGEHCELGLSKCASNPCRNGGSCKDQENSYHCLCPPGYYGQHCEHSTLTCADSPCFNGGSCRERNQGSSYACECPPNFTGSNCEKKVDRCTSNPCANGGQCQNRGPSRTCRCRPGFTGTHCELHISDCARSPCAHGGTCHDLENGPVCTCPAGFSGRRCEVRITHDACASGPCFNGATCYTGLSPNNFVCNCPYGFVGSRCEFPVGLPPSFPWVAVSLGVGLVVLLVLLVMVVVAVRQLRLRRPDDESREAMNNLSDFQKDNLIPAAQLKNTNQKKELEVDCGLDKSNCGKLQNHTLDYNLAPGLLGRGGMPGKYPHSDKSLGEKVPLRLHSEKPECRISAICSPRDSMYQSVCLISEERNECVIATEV

[11] = molecular target: T5, cynomolgus DLL4 expressed on CHO cells; assay: FACS; summary table, column taken as cDLL4
[12] = molecular target: T4, human DLL4 expressed on cells …; assay: FACS; summary table, column taken as hDLL4
[13] = molecular target: T2, recombinant human DLL4 (C-terminally …); assay: competition ELISA hDLL4/hNotch1-Fc; summary table
[14] = molecular target: T4, human DLL4 expressed on cells …; assay: competition FMAT, labelled hNotch1-Fc on CHO-hDLL4 cells
[15] = molecular target: T6, mouse DLL4 expressed on CHO cells; assay: competition FMAT, labelled hNotch1-Fc on CHO-mDLL4 cells
[16] = molecular target: T2, recombinant human DLL4 (C-terminally …); assay: competition ELISA, biotinylated hDLL4 to coated hNotch1-Fc
[17] = molecular target: T6, mouse DLL4 expressed on CHO cells; assay: FACS on CHO-mDLL4 cells
[18] = molecular target: T6, mouse DLL4 expressed on CHO cells; assay: FACS; summary table, column taken as mDLL4

| Binder | Kd [2] [nM] | koff [2] [s⁻¹] | kon [2] [M⁻¹ s⁻¹] | Kd [3] [nM] | koff [3] [s⁻¹] | kon [3] [M⁻¹ s⁻¹] | IC50, DLL4-mediated reporter assay [4] [nM] | EC50 [5] [nM] | EC50 [6] [nM] | Kd [7] [nM] | Kd [8] [nM] | IC50 [9] [nM] | IC50 [10] [nM] | EC50 [11] [nM] | EC50 [12] [nM] | IC50 [13] [nM] | IC50 [14] [nM] | IC50 [15] [nM] | IC50 [16] [nM] | EC50 [17] [nM] | also measured |
| --- | --- | --- | --- | --- | --- | --- | --- | --- | --- | --- | --- | --- | --- | --- | --- | --- | --- | --- | --- | --- | --- |
| B1 |  |  |  |  |  |  |  |  |  |  |  |  |  |  |  |  |  |  |  |  | koff [1]: 0.0021 s⁻¹ |
| B2 | 48 | 0.0023 | 48000 | 60 | 0.0056 | 94000 | 1940 | 11.2 | 17.5 | 48 | 60 | 69.3 | 140 | 11.2 | 17.5 | 10 | 69.3 | 140 | 10 |  |  |
| B3 | 0.3 | 7.9e-05 | 230000 | 1.1 | 0.00031 | 270000 | 60 | 3.9 | 9.7 | 0.3 | 1.1 | 7.4 | 14.4 | 3.9 | 9.7 | 0.9 | 7.4 | 14.4 | 0.9 | 3.9 | EC50 [18]: 3.9 nM |
| B4 | 0.4 | 6.4e-05 | 180000 | 0.8 | 0.0002 | 270000 | 77 | 3.8 | 9.6 | 0.4 | 0.8 | 7.8 | 11 | 3.8 | 9.6 | 1.2 | 7.8 | 11 | 1.2 | 3.7 | EC50 [18]: 3.7 nM |
| B5 | 0.5 | 9e-05 | 190000 | 1.2 | 0.00029 | 250000 | 98 | 4.2 | 1.4 | 0.5 | 1.2 | 8.1 | 12.3 | 4.2 | 10.4 | 1.3 | 8.1 | 12.3 | 1.3 | 4.1 | EC50 [18]: 4.1 nM |
